Experimental data taken from patent US20240294594A1 (CYTUNE PHARMA, published 2024).

T1: FcγRIIb (UniProt P31994 46-217, limits assumed)
T1 construct: also called FcgRIIb
T1 sequence (looked up): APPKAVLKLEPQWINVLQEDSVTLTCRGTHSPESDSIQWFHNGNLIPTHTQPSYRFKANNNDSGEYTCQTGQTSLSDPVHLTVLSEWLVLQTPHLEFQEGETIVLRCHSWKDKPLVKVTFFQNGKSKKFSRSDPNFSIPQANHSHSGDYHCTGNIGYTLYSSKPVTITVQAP

B1: hCl1a AAA-RLI DANA (other)
heavy 1: QVQLVQSGAEVKKPGASVKVSCKASGYTFTDYAMHWVRQAPGQRLEWMGWINTYTGKPTYAQKFQGRVTITRDTSASTAYMELSSLRSEDTAVYYCARAVFYGYTMDAWGQGTLVTVSSASTKGPSVFPLAPSSKSTSGGTAALGCLVKDYFPEPVTVSWNSGALTSGVHTFPAVLQSSGLYSLSSVVTVPSSSLGTQTYICNVNHKPSNTKVDKKVEPKSCDKTHTCPPCPAPELLGGPSVFLFPPKPKDTLMISRTPEVTCVVVDVSHEDPEVKFNWYVDGVEVHNAKTKPREEQYNATYRVVSVLTVLHQDWLNGKEYKCKVSNKALPAPIAATISKAKGQPREPQVYTLPPSRDELTKNQVSLWCLVKGFYPSDIAVEWESNGQPENNYKTTPPVLDSDGSFFLYSKLTVDKSRWQQGNVFSCSVMHEALHNHYTQKSLSLSPGITCPPPMSVEHADIWVKSYSLYSRERYICNSGFKRKAGTSSLTECVLNKATNVAHWTTPSLKCIRDPALVHQRPAPPSGGSGGGGSGGGSGGGGSGGNWVNVISDLKKIEDLIQSMHIDATLYTESDVHPSCKVTAMKCFLLELQVISLESGDASIHATVEALIILANNSLSSNAQVTESGCKECEELEEKNIKEFLQSFVHIVQMFINTS
heavy 2: QVQLVQSGAEVKKPGASVKVSCKASGYTFTDYAMHWVRQAPGQRLEWMGWINTYTGKPTYAQKFQGRVTITRDTSASTAYMELSSLRSEDTAVYYCARAVFYGYTMDAWGQGTLVTVSSASTKGPSVFPLAPSSKSTSGGTAALGCLVKDYFPEPVTVSWNSGALTSGVHTFPAVLQSSGLYSLSSVVTVPSSSLGTQTYICNVNHKPSNTKVDKKVEPKSCDKTHTCPPCPAPELLGGPSVFLFPPKPKDTLMISRTPEVTCVVVDVSHEDPEVKFNWYVDGVEVHNAKTKPREEQYNATYRVVSVLTVLHQDWLNGKEYKCKVSNKALPAPIAATISKAKGQPREPQVYTLPPSRDELTKNQVSLSCAVKGFYPSDIAVEWESNGQPENNYKTTPPVLDSDGSFFLVSKLTVDKSRWQQGNVFSCSVMHEALHNHYTQKSLSLSPG
light: DIQMTQSPSSLSASVGDRVTITCRASEDIYSNLAWYQQKPGKAPKLLIFSVKRLQDGVPSRFSGSGSGTDFTLTISSLQPEDFATYYCLQGSNFPLTFGQGTKVEIKRTVAAPSVFIFPPSDEQLKSGTASVVCLLNNFYPREAKVQWKVDNALQSGNSQESVTEQDSKDSTYSLSSTLTLSKADYEKHKVYACEVTHQGLSSPVTKSFNRGEC
notes: Immunocytokine; also called SOT202-AAA-DANA
B2: hCl1a AAA-RLI DANA afuc (other)
heavy 1: QVQLVQSGAEVKKPGASVKVSCKASGYTFTDYAMHWVRQAPGQRLEWMGWINTYTGKPTYAQKFQGRVTITRDTSASTAYMELSSLRSEDTAVYYCARAVFYGYTMDAWGQGTLVTVSSASTKGPSVFPLAPSSKSTSGGTAALGCLVKDYFPEPVTVSWNSGALTSGVHTFPAVLQSSGLYSLSSVVTVPSSSLGTQTYICNVNHKPSNTKVDKKVEPKSCDKTHTCPPCPAPELLGGPSVFLFPPKPKDTLMISRTPEVTCVVVDVSHEDPEVKFNWYVDGVEVHNAKTKPREEQYNATYRVVSVLTVLHQDWLNGKEYKCKVSNKALPAPIAATISKAKGQPREPQVYTLPPSRDELTKNQVSLWCLVKGFYPSDIAVEWESNGQPENNYKTTPPVLDSDGSFFLYSKLTVDKSRWQQGNVFSCSVMHEALHNHYTQKSLSLSPGITCPPPMSVEHADIWVKSYSLYSRERYICNSGFKRKAGTSSLTECVLNKATNVAHWTTPSLKCIRDPALVHQRPAPPSGGSGGGGSGGGSGGGGSGGNWVNVISDLKKIEDLIQSMHIDATLYTESDVHPSCKVTAMKCFLLELQVISLESGDASIHATVEALIILANNSLSSNAQVTESGCKECEELEEKNIKEFLQSFVHIVQMFINTS
heavy 2: QVQLVQSGAEVKKPGASVKVSCKASGYTFTDYAMHWVRQAPGQRLEWMGWINTYTGKPTYAQKFQGRVTITRDTSASTAYMELSSLRSEDTAVYYCARAVFYGYTMDAWGQGTLVTVSSASTKGPSVFPLAPSSKSTSGGTAALGCLVKDYFPEPVTVSWNSGALTSGVHTFPAVLQSSGLYSLSSVVTVPSSSLGTQTYICNVNHKPSNTKVDKKVEPKSCDKTHTCPPCPAPELLGGPSVFLFPPKPKDTLMISRTPEVTCVVVDVSHEDPEVKFNWYVDGVEVHNAKTKPREEQYNATYRVVSVLTVLHQDWLNGKEYKCKVSNKALPAPIAATISKAKGQPREPQVYTLPPSRDELTKNQVSLSCAVKGFYPSDIAVEWESNGQPENNYKTTPPVLDSDGSFFLVSKLTVDKSRWQQGNVFSCSVMHEALHNHYTQKSLSLSPG
light: DIQMTQSPSSLSASVGDRVTITCRASEDIYSNLAWYQQKPGKAPKLLIFSVKRLQDGVPSRFSGSGSGTDFTLTISSLQPEDFATYYCLQGSNFPLTFGQGTKVEIKRTVAAPSVFIFPPSDEQLKSGTASVVCLLNNFYPREAKVQWKVDNALQSGNSQESVTEQDSKDSTYSLSSTLTLSKADYEKHKVYACEVTHQGLSSPVTKSFNRGEC
modifications: afucosylated Fc N-glycan
B3: hCl1a DLE-RLI DANA (other)
heavy 1: QVQLVQSGAEVKKPGASVKVSCKASGYTFTDYAMHWVRQAPGQRLEWMGWINTYTGKPTYAQKFQGRVTITRDTSASTAYMELSSLRSEDTAVYYCARAVFYGYTMDAWGQGTLVTVSSASTKGPSVFPLAPSSKSTSGGTAALGCLVKDYFPEPVTVSWNSGALTSGVHTFPAVLQSSGLYSLSSVVTVPSSSLGTQTYICNVNHKPSNTKVDKKVEPKSCDKTHTCPPCPAPELLGGPDVFLFPPKPKDTLMISRTPEVTCVVVDVSHEDPEVKFNWYVDGVEVHNAKTKPREEQYNSTYRVVSVLTVLHQDWLNGKEYKCKVSNKALPLPEEKTISKAKGQPREPQVYTLPPSRDELTKNQVSLWCLVKGFYPSDIAVEWESNGQPENNYKTTPPVLDSDGSFFLYSKLTVDKSRWQQGNVFSCSVMHEALHNHYTQKSLSLSPGITCPPPMSVEHADIWVKSYSLYSRERYICNSGFKRKAGTSSLTECVLNKATNVAHWTTPSLKCIRDPALVHQRPAPPSGGSGGGGSGGGSGGGGSGGNWVNVISDLKKIEDLIQSMHIDATLYTESDVHPSCKVTAMKCFLLELQVISLESGDASIHATVEALIILANNSLSSNAQVTESGCKECEELEEKNIKEFLQSFVHIVQMFINTS
heavy 2: QVQLVQSGAEVKKPGASVKVSCKASGYTFTDYAMHWVRQAPGQRLEWMGWINTYTGKPTYAQKFQGRVTITRDTSASTAYMELSSLRSEDTAVYYCARAVFYGYTMDAWGQGTLVTVSSASTKGPSVFPLAPSSKSTSGGTAALGCLVKDYFPEPVTVSWNSGALTSGVHTFPAVLQSSGLYSLSSVVTVPSSSLGTQTYICNVNHKPSNTKVDKKVEPKSCDKTHTCPPCPAPELLGGPDVFLFPPKPKDTLMISRTPEVTCVVVDVSHEDPEVKFNWYVDGVEVHNAKTKPREEQYNSTYRVVSVLTVLHQDWLNGKEYKCKVSNKALPLPEEKTISKAKGQPREPQVYTLPPSRDELTKNQVSLSCAVKGFYPSDIAVEWESNGQPENNYKTTPPVLDSDGSFFLVSKLTVDKSRWQQGNVFSCSVMHEALHNHYTQKSLSLSPG
light: DIQMTQSPSSLSASVGDRVTITCRASEDIYSNLAWYQQKPGKAPKLLIFSVKRLQDGVPSRFSGSGSGTDFTLTISSLQPEDFATYYCLQGSNFPLTFGQGTKVEIKRTVAAPSVFIFPPSDEQLKSGTASVVCLLNNFYPREAKVQWKVDNALQSGNSQESVTEQDSKDSTYSLSSTLTLSKADYEKHKVYACEVTHQGLSSPVTKSFNRGEC
notes: Immunocytokine; also called SOT202-DLE-DANA

Tests used:
[1] = target: T2, FcγRIIIa F158 (human, UniProt P08637 17-208, limits assumed); experiment: SPR (Biacore 8K), ratio of 1/Kd values
T2 construct: also called hFcγRIIIaF158; CD16a F158
Method: (§1) SPR experiments were performed on a Biacore 8K (Cytiva, Chicago, IL, USA), using CM5 sensor chips (Cytiva) with an immobilization using THE His tag antibodies (Genscript). FcγRIIIa V158, FcγRIIIa F158 or FcγRIIb protein were used for capture with a contact time of 30 sec at a flow rate of […] in a 1×HBS-EP+ running buffer. Association/dissociation rates were measured for each tested immunocytokine at a flow rate of 30 μl/min with concentration serial dilution in a suitable range with an association time/dissociation time of 300 s/300 s except for constructs with DLE and DE with and without afucosylation, where association/dissociation time of 120 s/1200 s was applied.

[2] = target: T3, FcγRIIIa V158 (human, UniProt P08637 17-208, limits assumed); experiment: SPR (Biacore 8K), ratio of 1/Kd values
T3 construct: also called hFcγRIIIaV158; CD16a V158
Method: as §1

[3] = target: T1, FcγRIIb; experiment: SPR (Biacore 8K), receptor captured via anti-His antibody
Method: as §1

[4] = target: T2, FcγRIIIa F158; experiment: as above
Method: as §1

[5] = target: T3, FcγRIIIa V158; experiment: as above
Method: as §1

T3 sequence (P08637 17-208 F176V limits assumed): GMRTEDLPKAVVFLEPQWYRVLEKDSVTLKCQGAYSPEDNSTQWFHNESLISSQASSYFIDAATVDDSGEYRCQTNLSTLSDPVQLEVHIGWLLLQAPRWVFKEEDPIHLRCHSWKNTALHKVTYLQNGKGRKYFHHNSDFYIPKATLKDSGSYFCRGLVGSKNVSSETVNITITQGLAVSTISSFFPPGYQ
T2 sequence (P08637 17-208 limits assumed): as the sequence (P08637 17-208 F176V limits assumed) above, with V160F counted along it

| Binder | A/I (F158), affinity towards FcγRIIIa over affinity towards FcγRIIb [1] [ratio] | A/I (V158), affinity towards FcγRIIIa over affinity towards FcγRIIb [2] [ratio] | Kd [3] [nM] | Kd [4] [nM] | Kd [5] [nM] |
| --- | --- | --- | --- | --- | --- |
| B1 | 244 | 691 | 24600 | 101 | 35.6 |
| B2 | 380 | 1010 | 17500 | 46.1 | 17.3 |
| B3 | 228 | 464 | 2650 | 11.6 | 5.71 |
